From PMC2192215 (The Journal of Experimental Medicine, 1995)
“Also recorded” adds a separate entry of the source. Each block holds one molecule with its values, some of them ahead of it. Ends that are not written are not given here.

Columns and labels:
[1] = tested on: Seu.5 T cells; assay: T cell hybridoma assay: IL-2 production by Seu.5 T cells; assay type: cell-based, A/J mice; conditions: APC pulsed with the peptide, tissue culture assay; data not shown
[2] = cited from earlier work
[3] = biological target: T1, I-Au molecule (Mus musculus, UniProt P06344+P14438); conditions: cited from earlier work
T1 sequence (P06344 whole entry, looked up): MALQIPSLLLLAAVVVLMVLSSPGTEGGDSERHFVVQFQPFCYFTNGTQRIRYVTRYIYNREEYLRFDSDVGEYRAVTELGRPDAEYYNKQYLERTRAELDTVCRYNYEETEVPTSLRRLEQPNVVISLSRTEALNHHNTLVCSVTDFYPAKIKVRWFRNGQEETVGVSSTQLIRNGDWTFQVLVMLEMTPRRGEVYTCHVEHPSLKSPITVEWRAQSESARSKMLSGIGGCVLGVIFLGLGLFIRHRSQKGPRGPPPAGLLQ
T1 sequence (P14438 whole entry, looked up): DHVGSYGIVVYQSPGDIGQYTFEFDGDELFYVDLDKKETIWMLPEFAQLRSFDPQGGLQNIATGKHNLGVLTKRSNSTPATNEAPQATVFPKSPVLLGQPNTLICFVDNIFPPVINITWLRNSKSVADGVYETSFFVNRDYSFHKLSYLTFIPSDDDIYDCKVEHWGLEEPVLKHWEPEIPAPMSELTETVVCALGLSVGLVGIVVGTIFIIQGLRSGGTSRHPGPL

[4] = tested on: A/J mice; assay: Induction and quantitation of autoimmune myocarditis in A/J mice; assay type: in vivo; conditions: experiment 1; 100 μg myosin or 100 nmol peptide; H&E cross-sections, day 21
[5] = biological target: I-Ak molecules on the surface of I-Ak-expressing M12.C3.F6 B-lymphoma cells (mouse); assay: SDS/PAGE stability assay
[6] = biological target: purified I-Ak molecules (mouse); assay: radioligand binding

Molecule: SAFDVLSFTAEEKA [myhc0~(335-348)]
- stimulation of Seu.5 T cells by peptide-pulsed APC [1]: strongly stimulated

Molecule: MBP(Ac1-11): myelin basic protein epitope (Ac-MGNHSGKRELS; UniProt P04370 1-11, looked up, fragment)
- induction of experimental autoimmune encephalomyelitis [2]: could strongly induce experimental autoimmune
- binding to I-Au [3]: bound very weakly

Molecule: DSAFDVLSFTAEEKAGVYK [myhca(334-352)]
- severity of myocarditis in photomicrographs (Fig. 4 B) [4]: Moderate; also recorded: Severe

Molecule: YEDYGILQINSR (also: 125I-labeled, residue not given here) [125I-labeled HEL(YE52-61)]
- maximum binding in the absence of competitors [6]: 148000 cpm

Molecule: YEDYGILQINSR [HEL(YE52-61), unlabeled]
- relative IC50 (relative to unlabeled HEL(YE52-61)) [6]: 1

Molecule: DGSTDYGILQINSR (also: 125I-labeled, residue not given here) [125I-labeled HEL(48-61)]
- percent SDS-stable I-Ak [5]: 96%

More lines, now with the values ahead:

- percent SDS-stable I-Ak [5]: 50%
Molecule: DSAFDVLSFTAEEKAGVYK (not fully specified; also: radiolabel on Tyr, isotope not given here) [myhc alpha(334-352) peptide, radiolabeled]

- relative IC50 (relative to unlabeled HEL(YE52-61)) [6]: 33.3
Molecule: VNTFVHESLADVQA [bovine RNase(43-56)]

- relative IC50 (relative to unlabeled HEL(YE52-61)) [6]: 15.6
Molecule: DSAFDVLSFTAEEKAGVYK [myhc alpha(334-352) peptide, unlabeled]
